This assay addresses Bcl-xL (UniProt Q07817). The assay can be described thus: anti-myc co-IP, Bcl-xL immunoblot. Particulars: reference: myc-Rad9 wild type; sites S328. For orientation: Immunoblotting shows a protein as a band on a membrane.

With “Rad9 (from UniProt Q99638) myc-Rad9 S328A”, the “binding against the reference” value was “weaker”.

(Values after publication PMC3441668.)
